From IntAct's records for PubMed 19171758

B1: BAR/IMD domain-containing adapter protein 2 (Homo sapiens), Q9UQB8-4 (parent)
chain: MSLSRSEEMHRLTENVYKTIMEQFNPSLRNFIAMGKNYEKALAGVTYAAKGYFDALVKMGELASESQGSKELGDVLFQMAEVHRQIQNQLEEMLKSFHNELLTQLEQKVELDSRYLSAALKKYQTEQRSKGDALDKCQAELKKLRKKSQGSKNPQKYSDKELQYIDAISNKQGELENYVSDGYKTALTEERRRFCFLVEKQCAVAKNSAAYHSKGKELLAQKLPLWQQACADPSKIPERAVQLMQQVASNGATLPSALSASKSNLVISDPIPGAKPLPVPPELAPFVGRMSAQESTPIMNGVTGPDGEDYSPWADRKAAQPKSLSPPQSQSKLSDSYSNTLPVRKSVTPKNSYATTENKTLPRSSSMAAGLERNGRMRVKAIFSHAAGDNSTLLSFKEGDLITLLVPEARDGWHYGESEKTKMRGWFPFSYTRVLDSDGSDRLHMSLQQGKSSSTGNLLDKDDLAIPPPDYGAASRAFPAQTASGFKQRPYSVAVPAFSQGLDDYGARSMSSGSGTLVSTV

Variants of: B1
Conditions: with rac1_human RAC1, P63000

Row | Variant | effect of a mutation on the interaction
1 | R11E;K143E | disrupting interaction
